What was measured:
[1] = target: complement C3b, site-specifically biotinylated (human) (UniProt P01024); assay: SPR
[2] = target: complement C3b, site-specifically biotinylated (human) (UniProt P01024); assay: SPR; remark: listed apart in the source
[3] = target: complement C3b, site-specifically biotinylated (human) (UniProt P01024); assay: AlphaScreen or HTRF

complement C3b, site-specifically biotinylated (human), sequence (P01024 23-667, chain 1 of 2): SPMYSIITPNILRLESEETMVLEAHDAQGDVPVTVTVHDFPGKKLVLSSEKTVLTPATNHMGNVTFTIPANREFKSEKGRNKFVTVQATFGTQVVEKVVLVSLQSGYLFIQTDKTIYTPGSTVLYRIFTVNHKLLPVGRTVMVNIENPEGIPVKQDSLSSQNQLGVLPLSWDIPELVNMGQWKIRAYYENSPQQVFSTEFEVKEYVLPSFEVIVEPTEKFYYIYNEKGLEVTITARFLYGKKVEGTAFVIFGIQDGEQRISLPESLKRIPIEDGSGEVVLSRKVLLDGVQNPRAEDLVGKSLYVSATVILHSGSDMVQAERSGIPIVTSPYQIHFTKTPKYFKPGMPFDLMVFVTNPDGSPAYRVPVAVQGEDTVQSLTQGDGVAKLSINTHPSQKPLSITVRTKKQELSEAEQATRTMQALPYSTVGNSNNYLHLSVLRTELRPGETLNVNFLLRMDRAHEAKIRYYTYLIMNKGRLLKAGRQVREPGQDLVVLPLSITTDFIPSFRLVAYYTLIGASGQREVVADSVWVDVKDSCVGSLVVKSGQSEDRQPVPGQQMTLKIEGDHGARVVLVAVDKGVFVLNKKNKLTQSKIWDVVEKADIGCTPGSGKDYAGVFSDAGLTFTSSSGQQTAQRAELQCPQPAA
complement C3b, site-specifically biotinylated (human), sequence (P01024 749-1663, chain 2 of 2): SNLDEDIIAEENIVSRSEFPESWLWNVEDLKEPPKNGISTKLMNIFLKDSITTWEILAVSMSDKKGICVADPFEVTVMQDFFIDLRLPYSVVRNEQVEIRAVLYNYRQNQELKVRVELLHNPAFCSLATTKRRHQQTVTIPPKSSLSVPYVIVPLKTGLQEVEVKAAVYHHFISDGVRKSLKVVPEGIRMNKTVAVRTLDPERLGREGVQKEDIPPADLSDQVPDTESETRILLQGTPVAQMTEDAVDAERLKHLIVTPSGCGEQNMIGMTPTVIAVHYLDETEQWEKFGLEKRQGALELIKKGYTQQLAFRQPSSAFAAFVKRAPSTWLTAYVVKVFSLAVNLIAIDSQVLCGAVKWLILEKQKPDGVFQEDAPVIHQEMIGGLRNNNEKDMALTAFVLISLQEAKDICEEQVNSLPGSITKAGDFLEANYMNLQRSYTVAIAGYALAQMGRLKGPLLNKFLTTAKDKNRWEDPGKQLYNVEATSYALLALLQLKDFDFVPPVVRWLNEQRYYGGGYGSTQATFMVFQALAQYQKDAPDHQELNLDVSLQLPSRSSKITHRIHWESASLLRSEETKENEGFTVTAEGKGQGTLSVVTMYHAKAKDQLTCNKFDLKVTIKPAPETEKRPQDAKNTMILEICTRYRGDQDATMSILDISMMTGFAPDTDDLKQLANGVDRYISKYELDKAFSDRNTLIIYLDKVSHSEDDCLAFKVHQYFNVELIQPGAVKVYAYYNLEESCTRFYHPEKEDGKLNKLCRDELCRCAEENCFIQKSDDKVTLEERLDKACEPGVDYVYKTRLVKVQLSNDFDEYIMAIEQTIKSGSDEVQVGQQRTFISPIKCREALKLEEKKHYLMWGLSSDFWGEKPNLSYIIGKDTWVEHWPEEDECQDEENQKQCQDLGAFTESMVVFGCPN

Substance: SCIN-B.R44A (natural protein)
- Kd [1]: 2500 nM
- Kd [2]: 2600 nM
- koff [2]: 0.35 s⁻¹
- kon [2]: 140000 M⁻¹ s⁻¹

Substance: SCIN-B.R44A.Y51A (natural protein)
- Kd [3]: 3500 nM
- Kd [1]: 2500 nM
- Kd [2]: 5100 nM
- koff [2]: 0.51 s⁻¹
- kon [2]: 110000 M⁻¹ s⁻¹

Substance: SCIN-B.Y51A (natural protein)
- Kd [3]: 900 nM
- Kd [1]: 1000 nM
- Kd [2]: 810 nM

Substance: staphylococcal complement inhibitor SCIN-B, full-length wild type (natural protein)
- Kd [1]: 390 nM
- Kd [2]: 202 nM
- kon [2]: 520000 M⁻¹ s⁻¹
